From publication PMC3584105, “Acute BDNF Treatment Upregulates GluR1-SAP97 and GluR2-GRIP1 Interactions: Implications for Sustained AMPA Receptor Expression” (PLoS ONE, 2013)

Target: T1, GluR2 (wild type, full length, expressed in HEKTrkB cells) (UniProt P19491 22-883)
T1 construct: AMPA receptor subunit GluR2, wild type cDNA in a CMV expression vector; the deletion mutants of the same cDNA end at residue 862; also called WT GluR2; full length GluR2; source: HEKTrkB cells, transiently co-transfected (cDNA downstream from the CMV promoter), in lysate
T1 sequence (P19491 22-883): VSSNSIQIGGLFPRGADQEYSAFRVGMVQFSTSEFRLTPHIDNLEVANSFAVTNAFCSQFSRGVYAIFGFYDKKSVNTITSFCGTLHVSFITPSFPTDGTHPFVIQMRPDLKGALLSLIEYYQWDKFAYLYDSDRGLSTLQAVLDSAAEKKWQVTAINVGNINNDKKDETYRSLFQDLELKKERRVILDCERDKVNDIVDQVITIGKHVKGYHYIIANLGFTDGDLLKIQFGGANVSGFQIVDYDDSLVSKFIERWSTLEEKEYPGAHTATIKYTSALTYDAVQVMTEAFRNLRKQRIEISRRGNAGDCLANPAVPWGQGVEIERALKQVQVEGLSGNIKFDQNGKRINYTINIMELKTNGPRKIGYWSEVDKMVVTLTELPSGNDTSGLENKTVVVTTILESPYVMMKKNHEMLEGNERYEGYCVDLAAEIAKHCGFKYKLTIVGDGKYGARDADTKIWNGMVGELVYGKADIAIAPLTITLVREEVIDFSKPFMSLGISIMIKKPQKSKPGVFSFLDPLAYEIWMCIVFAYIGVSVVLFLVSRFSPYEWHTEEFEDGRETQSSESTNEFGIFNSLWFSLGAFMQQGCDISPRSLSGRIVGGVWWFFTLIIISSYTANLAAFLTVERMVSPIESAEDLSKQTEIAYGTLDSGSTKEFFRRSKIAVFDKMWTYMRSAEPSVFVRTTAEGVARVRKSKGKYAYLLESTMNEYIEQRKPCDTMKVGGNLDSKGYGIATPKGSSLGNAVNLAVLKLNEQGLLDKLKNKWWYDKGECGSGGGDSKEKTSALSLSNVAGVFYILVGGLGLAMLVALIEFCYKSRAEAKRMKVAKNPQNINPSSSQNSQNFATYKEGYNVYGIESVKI
Experiment: co-IP; lysate of HEKTrkB cells co-transfected with GluR2 and GRIP1, treated with BDNF (1 h, 50 ng/mL) or not; precipitation with anti-N-terminal GluR2 and blot with anti-GRIP1, or precipitation with anti-GRIP1 and blot with anti-C-terminal GluR2/3
Conditions: partners not purified

B1: GRIP1 (expressed in HEKTrkB cells) (natural protein, UniProt P97879 1-1112, looked up)
chain: MIAVSFKCRCQILRRLTKDESPYTKSASQTKPPDGALAVRRQSIPEEFKGSTVVELMKKEGTTLGLTVSGGIDKDGKPRVSNLRQGGIAARSDQLDVGDYIKAVNGINLAKFRHDEIISLLKNVGERVVLEVEYELPPVSIQGSSVMFRTVEVTLHKEGNTFGFVIRGGAHDDRNKSRPVVITCVRPGGPADREGTIKPGDRLLSVDGIRLLGTTHAEAMSILKQCGQEATLLIEYDVSVMDSVATASGPLLVEVAKTPGASLGVALTTSVCCNKQVIVIDKIKSASIADRCGALHVGDHILSIDGTSMEYCTLAEATQFLANTTDQVKLEILPHHQTRLALKGPDHVKIQRSDRQLPWDPWASSQCSVHTNHHHNPHHPDHCRVPALGFPKALTPNSPPAMVSSSSPTSMSAYSLSSLNMGTLPRSLYSTSPRGTMMRRRLKKKDFKSSLSLASSTVGLAGQVVHTETTEVVLTADPVTGFGIQLQGSVFATETLSSPPLISYIEADSPAERCGVLQIGDRVMAINGIPTEDSTFEEANQLLRDSSITSKVTLEIEFDVAESVIPSSGTFHVKLPKKHSVELGITISSPSSRKPGDPLVISDIKKGSVAHRTGTLELGDKLLAIDNIRLDSCSMEDAVQILQQCEDLVKLKIRKDEDNSDEQESSGAIIYTVELKRYGGPLGITISGTEEPFDPIIISSLTKGGLAERTGAIHIGDRILAINSSSLKGKPLSEAIHLLQMAGETVTLKIKKQTDAQPASSPKKLPIPSHSSDLGDGEEDPSPIQRPGKLSDVYPSTVPSVDSAVDSWDGSGIDARYGSQGTTFQTSGYNFNTYDWRSPKKRASLSPVPKPRSQTYPDVGLSNEDWDRSTASGFAGASDSADAEQEENFWSQALEDLETCGQSGILRELEATIMSGSTMSLNHEAPTARSQLGRQASFQERSNSRPHYSQTTRSNTLPSDVGRKSVTLRKMKQEIKEIMSPTPVELHKVTLYKDSGMEDFGFSVADGLLEKGVYVKNIRPAGPGDLGGLKPYDRLLQVNHVRTRDFDCCLVVPLIAESGNKLDLVISRNPLASQKSIEQPALPSDWSEQNSAFFQQPSHGGNLETREPTNTL
notes: source: HEKTrkB cells, transiently co-transfected (cDNA downstream from the CMV promoter), in lysate
**Q.** With B1 as the binder, how does the “fold change of the co-precipitate, 1 h BDNF against untreated cells” value read?
**A.** ~6 fold
